± gives the standard error. For some of these results: Variants at the floor of the assay were thinned out.
B1: glmS ribozyme (parent)
chain: AUAAAAGCGCCAGAACUACAGAAAUGUAGUUGACGAGGAGGAGGUUUAUCGAAUUUUCGGCGGAUGCCUCCAAA

What was measured:
Settings in all cases: with glucosamine-6-phosphate
glucosamine-6-phosphate [1] = variants of: B1; assay: kcat; higher = faster cleavage; RNA array
Method in brief: (§1)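 Tiles bearing barcoded ribozyme variants, transcribed in situ by E. coli RNA polymerase on sequenced MiSeq chips, were imaged over ~14 h at 37 °C using a hybridised Cy3 probe. Glucosamine-6-phosphate was supplied at 40 μM to 10 mM in HEPES/KCl/Mg(OAc)2 buffer. kobs came from one- or two-exponential decay fits to normalised per-tile medians, and weighted Michaelis–Menten fits then provided kcat and KM.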

glucosamine-6-phosphate [2] = variants of: B1; assay: self-cleavage kobs at 160 uM GlcN6P; higher = faster cleavage; RNA array
Method in brief: as §1

glucosamine-6-phosphate [3] = variants of: B1; assay: self-cleavage kobs at 10000 uM GlcN6P; higher = faster cleavage; RNA array
Method in brief: as §1

glucosamine-6-phosphate [4] = variants of: B1; assay: KM; higher = weaker cofactor use; RNA array
Method in brief: as §1

glucosamine-6-phosphate [5] = variants of: B1; assay: self-cleavage kobs at 640 uM GlcN6P; higher = faster cleavage; RNA array
Method in brief: as §1

glucosamine-6-phosphate [6] = variants of: B1; assay: self-cleavage kobs at 2500 uM GlcN6P; higher = faster cleavage; RNA array
Method in brief: as §1

glucosamine-6-phosphate [7] = variants of: B1; assay: self-cleavage kobs at 40 uM GlcN6P; higher = faster cleavage; RNA array
Method in brief: as §1

| Variant | kcat (glucosamine-6-phosphate [1]) | self-cleavage kobs at 160 uM GlcN6P (glucosamine-6-phosphate [2]) | self-cleavage kobs at 10000 uM GlcN6P (glucosamine-6-phosphate [3]) | KM (glucosamine-6-phosphate [4]) | self-cleavage kobs at 640 uM GlcN6P (glucosamine-6-phosphate [5]) | self-cleavage kobs at 2500 uM GlcN6P (glucosamine-6-phosphate [6]) | self-cleavage kobs at 40 uM GlcN6P (glucosamine-6-phosphate [7]) |
| --- | --- | --- | --- | --- | --- | --- | --- |
| U57A G63A | < 1e-05 s⁻¹ | < 1e-05 s⁻¹ | < 1e-05 s⁻¹ | – | – | – | – |
| U56A G66U | 0.000875 ± 6.7e-05 s⁻¹ | 5.15e-05 ± 8.2e-06 s⁻¹ | 0.000712 ± 6.7e-05 s⁻¹ | 2780 ± 350 µM | 0.000164 ± 1.8e-05 s⁻¹ | 0.000378 ± 4.5e-05 s⁻¹ | – |
| U57G C68A C70U | 3.59e-05 ± 1.7e-05 s⁻¹ | – | – | – | 5.38e-05 ± 1.8e-05 s⁻¹ | – | – |
| G66A C67A C71U | 0.00289 ± 0.0012 s⁻¹ | – | 0.002 ± 0.00029 s⁻¹ | – | 0.000304 ± 6.2e-05 s⁻¹ | 0.00101 ± 0.00048 s⁻¹ | 6.11e-05 ± 1.7e-05 s⁻¹ |
| G59A C67G | 1.27e-05 ± 2.9e-06 s⁻¹ | – | – | – | – | – | – |
| G66A C68A | 0.000285 ± 7.9e-05 s⁻¹ | – | 0.000216 ± 4.2e-05 s⁻¹ | – | 0.000138 ± 2.7e-05 s⁻¹ | 0.000313 ± 5.4e-05 s⁻¹ | – |
| U57A C67A | 0.000119 ± 3.3e-05 s⁻¹ | – | 9.37e-05 ± 1.1e-05 s⁻¹ | – | 4.64e-05 ± 1.4e-05 s⁻¹ | 4.66e-05 ± 7.6e-06 s⁻¹ | – |
| U57A C67U | 0.000139 ± 3.1e-05 s⁻¹ | – | 0.000108 ± 1e-05 s⁻¹ | – | 5.03e-05 ± 1.7e-05 s⁻¹ | 5.36e-05 ± 9.6e-06 s⁻¹ | – |
| G66A | 0.0375 ± 0.011 s⁻¹ | 0.0016 ± 6.7e-05 s⁻¹ | 0.0316 ± 0.0015 s⁻¹ | 2780 ± 890 µM | 0.00697 ± 0.0004 s⁻¹ | 0.016 ± 0.00099 s⁻¹ | 0.00059 ± 1.2e-05 s⁻¹ |
| G66C | 0.000832 ± 7.4e-05 s⁻¹ | 8.08e-05 ± 2.4e-06 s⁻¹ | 0.000712 ± 1.8e-05 s⁻¹ | 1470 ± 210 µM | 0.000244 ± 6.2e-06 s⁻¹ | 0.000709 ± 3.8e-05 s⁻¹ | 2.55e-05 ± 1.8e-06 s⁻¹ |
| G66U | 0.00275 ± 0.00056 s⁻¹ | 0.000159 ± 5.1e-06 s⁻¹ | 0.00225 ± 6.3e-05 s⁻¹ | 2210 ± 580 µM | 0.00057 ± 1.2e-05 s⁻¹ | 0.00179 ± 6.8e-05 s⁻¹ | 5.79e-05 ± 1.2e-06 s⁻¹ |
| C61G C68U | < 1e-05 s⁻¹ | – | – | – | – | – | – |
| A64C U69G | 1.56e-05 ± 5e-06 s⁻¹ | – | – | – | – | – | < 1e-05 s⁻¹ |
| C61A A64U C71G | 1.67e-05 ± 3.2e-06 s⁻¹ | – | – | – | – | – | – |
| U57A C71G | 5.3e-05 ± 1.6e-05 s⁻¹ | – | – | – | – | – | – |
| U55G U57A | 0.000252 ± 8.2e-06 s⁻¹ | – | 0.000203 ± 2e-05 s⁻¹ | 2520 ± 190 µM | 5.17e-05 ± 1e-05 s⁻¹ | 0.000124 ± 1.5e-05 s⁻¹ | – |
| G59A C70A | 1.52e-05 ± 3.7e-06 s⁻¹ | – | – | – | – | – | – |
| U56C C58A | 0.000232 ± 6.7e-05 s⁻¹ | – | 0.000146 ± 1.9e-05 s⁻¹ | – | 3.8e-05 ± 1.6e-05 s⁻¹ | 5.91e-05 ± 1.6e-05 s⁻¹ | – |
| U56C C58G | 2.76e-05 ± 8.3e-06 s⁻¹ | – | – | – | – | – | – |
| U56C C58U | 6.39e-05 ± 2.4e-06 s⁻¹ | – | 4.48e-05 ± 8.5e-06 s⁻¹ | 4240 ± 440 µM | – | 2.41e-05 ± 1.1e-05 s⁻¹ | – |
